In publication PMC8632329 (mAbs, 2021):

How the values were obtained:
mVISTA-COMP-his = mVISTA-COMP-his (Mus musculus, UniProt Q9D659); experiment: SPR
hVISTA-COMP-his [1] = molecular target: T1, hVISTA-COMP-his (Homo sapiens, UniProt Q9H7M9); experiment: SPR
Target sequence in this assay (Q9H7M9 whole entry, looked up, tested part not stated): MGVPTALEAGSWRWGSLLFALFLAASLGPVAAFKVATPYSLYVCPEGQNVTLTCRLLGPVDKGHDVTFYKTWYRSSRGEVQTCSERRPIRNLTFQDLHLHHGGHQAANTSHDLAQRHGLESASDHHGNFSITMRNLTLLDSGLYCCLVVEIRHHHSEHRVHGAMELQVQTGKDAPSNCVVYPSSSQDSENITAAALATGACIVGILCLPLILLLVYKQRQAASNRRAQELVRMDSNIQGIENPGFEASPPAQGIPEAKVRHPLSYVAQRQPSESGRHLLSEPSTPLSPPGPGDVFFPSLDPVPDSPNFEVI

hVISTA-Fc = hVISTA-Fc (Homo sapiens (Human)., UniProt Q9H7M9); experiment: SPR
hVISTA-COMP-his [2] = molecular target: T1, hVISTA-COMP-his
Target sequence in this assay (Q9H7M9 33-168): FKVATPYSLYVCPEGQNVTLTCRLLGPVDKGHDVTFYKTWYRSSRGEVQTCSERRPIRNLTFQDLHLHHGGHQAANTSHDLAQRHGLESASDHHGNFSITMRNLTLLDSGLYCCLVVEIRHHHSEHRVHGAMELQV

Chain of mVISTA-COMP-his (Q9D659 whole entry, looked up, tested part not stated): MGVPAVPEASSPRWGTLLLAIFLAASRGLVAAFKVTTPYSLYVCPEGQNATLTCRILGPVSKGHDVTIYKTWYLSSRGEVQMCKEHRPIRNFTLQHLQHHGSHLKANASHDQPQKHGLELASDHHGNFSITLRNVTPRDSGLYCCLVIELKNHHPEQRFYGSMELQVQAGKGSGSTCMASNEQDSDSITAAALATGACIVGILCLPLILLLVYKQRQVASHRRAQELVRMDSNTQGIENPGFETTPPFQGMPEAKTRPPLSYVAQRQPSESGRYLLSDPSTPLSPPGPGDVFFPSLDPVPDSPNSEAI
Chain of hVISTA-Fc (Q9H7M9 33-194): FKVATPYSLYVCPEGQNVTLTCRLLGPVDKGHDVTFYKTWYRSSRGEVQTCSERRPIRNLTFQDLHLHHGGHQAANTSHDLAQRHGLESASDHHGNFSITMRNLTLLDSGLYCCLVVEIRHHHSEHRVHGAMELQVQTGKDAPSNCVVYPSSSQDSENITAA

| Binder | Kd (hVISTA-COMP-his [1]) [nM] | binding result (hVISTA-COMP-his [2]) | other results |
| --- | --- | --- | --- |
| rat anti-hmVISTA mAb 7C7 (antibody, V domains shown) VH: EVQLVESGGGLVQPGRSLKLSCVASGFTFNKYWMSWTRQAPGKGLEWVASITNSGGNTYYPDSVKGRFTISRDNAQNTLYLQMNSLRSEDTATYYCTLGVDYWGQGAMVTVSS VL: DVVMTQTPPSLSVTIGQSVSISCKSSQSLVYSDGKTYLHWLLQSSGRSPKRLIYQVSNLASGVPDRFSGTGSQKDFTLKISRVEAKDLGVYYCAQTTHFPYTFGAGTKLEMK | 49 |  | Kd (mVISTA-COMP-his): 51 nM |
| anti-hVISTA nanobody hVISTANb7 (VHH) VHH: QVQLQESGGGLVYPGGSLRLSCTASGFAFTNAYMNWVRQAPGKGAEWVSGITRDSNRTSYADSVKGRFTISRDNAKNTLYLQMDSLKSDDTALYYCNAEPSGWWLDDDYWGQGTQVTVSS |  |  | Kd (hVISTA-Fc): 7.5 nM |
| murine anti-hVISTA mAb 7E12 (antibody, V domains shown) VH: DVHLQESGPGLVKPSQSLSLTCSVTGYSITSGYYWNWIRQFPGNKLEWMGYISYDGNNNYNPSLKNRISITRDTSKNQFFLKLNSVTTEDTATYYCARGDYGSEAMDYWGQGTSVTVSS VL: DIRVTQSPASLAVSLGQRATISCRASKSVSTSGYSYMNWYQQKPGQPPQLLIYLASNLESGVPARFSGSGSGTDFTLNIHPVEEEDAAIYYCQHSRELPWTFGGGTKLEIK | 0.44 |  | binding result (mVISTA-COMP-his): no binding |
| Nb3 [hVISTANb3] (VHH) VHH: QVQLQESGGGLVHPGGSLRLSCAASGSVGTIFSMGWFRQAPGVQREMVATITNSGETNYAAFVKGRFTITRDNAQNTVYLQMNSLKPEDTAAYYCNAFDYVGGRTYELPYWGQGTQVTVSS |  | binds |  |
| anti-hVISTA nanobody hVISTANb1 (VHH) VHH: QVQLQESGGGLVQPGGSLRLSCAASGSVGTIFSMGWFRQAPGVQREMVATITNSGETNYAAFVKGRFTISRDNAENTVYLQMNSLKPEDTAAYYCNAFDYVGGRTYELPYWGQGTQVTVSS |  |  | Kd (hVISTA-Fc): 11 nM |
| Nb6 [hVISTANb6] (VHH) VHH: QVQLQESGGGLVHPGGSLRLSCAASGSGVTIFSMGWFRQAPGVQREMVATITNSGETNYAAFVKGRFTISRDNAQNAVYLQMNSLKPEDTAAYYCNAFDYVGGRTYELPYWGQGTQVTVSS |  | binds |  |
| Nb2 [hVISTANb2] (VHH) VHH: QVQLQESGGGLVHPGGSLRLSCAASGSVGTIFSMGWFRQAPGVQREMVATITNSGETNYAAFVKGRFTISRDNAENTMYLEMNDLKPEDTAAYYCNAFDYVGGRTYELPYWGQGTQVTVSS |  | binds |  |
| murine anti-hVISTA mAb 7G5 (antibody, V domains shown) VH: QIQLVQSGPELKKPGETVKISCKASGYTFTNYGMNWVKQAPEKGLKWMGWINTYTGEPTYADDFKGRFAFSLETSASTAYLQINNLKNEDTATYFCARRSNPWPNDYWGQGTSLTVSS VL: DIQMTQSPSSFSASLGERVSLTCRASQEISGYLSWLQQKPDGTIKRLIYAASTLDSGVPKRFSGSRSGSDYSLTISSLESEDFADYYCLQYASYPWTFGGGTKLEIK | 0.14 |  | binding result (mVISTA-COMP-his): no binding |
